Measured values taken from patent publication US5739291, “Glutamate receptor antibodies” (The Salk Institute For Biological Studies, dated 1998).

Target: glutamate receptor subunit GluR2 (rat)
Experiment: cell-based or functional assay

Sequence of glutamate receptor subunit GluR2 (rat) (chain, as listed by the source limits assumed): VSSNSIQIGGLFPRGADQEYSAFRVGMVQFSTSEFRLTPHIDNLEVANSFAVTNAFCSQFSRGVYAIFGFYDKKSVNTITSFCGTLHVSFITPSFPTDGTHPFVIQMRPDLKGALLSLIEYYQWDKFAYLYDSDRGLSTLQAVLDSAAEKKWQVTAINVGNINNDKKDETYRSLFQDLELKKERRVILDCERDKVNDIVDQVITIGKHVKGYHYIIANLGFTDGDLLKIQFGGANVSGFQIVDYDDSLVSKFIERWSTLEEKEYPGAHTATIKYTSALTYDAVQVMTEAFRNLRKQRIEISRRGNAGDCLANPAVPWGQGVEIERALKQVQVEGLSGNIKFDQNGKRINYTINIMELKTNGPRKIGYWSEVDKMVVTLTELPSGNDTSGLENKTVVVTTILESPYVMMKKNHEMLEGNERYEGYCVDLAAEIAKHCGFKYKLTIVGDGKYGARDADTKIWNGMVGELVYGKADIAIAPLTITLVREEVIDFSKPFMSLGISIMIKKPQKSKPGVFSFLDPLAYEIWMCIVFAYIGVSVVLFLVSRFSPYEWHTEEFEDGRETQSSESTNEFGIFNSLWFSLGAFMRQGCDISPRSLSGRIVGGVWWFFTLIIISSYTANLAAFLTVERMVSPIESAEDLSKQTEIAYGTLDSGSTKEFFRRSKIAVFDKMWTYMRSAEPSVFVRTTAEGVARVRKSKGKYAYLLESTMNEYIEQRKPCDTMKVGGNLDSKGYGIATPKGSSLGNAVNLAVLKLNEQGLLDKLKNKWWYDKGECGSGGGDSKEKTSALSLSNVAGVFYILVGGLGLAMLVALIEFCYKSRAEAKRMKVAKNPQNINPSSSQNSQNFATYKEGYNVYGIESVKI

KA-evoked currents in Xenopus oocytes on co-expression, against the summed responses of singly injected oocytes: ~4 fold
B1: glutamate receptor subunit GluR1 (receptor)
chain: ANFPNNIQIGGLFPNQQSQEHAAFRFALSQLTEPPKLLPQIDIVNISDTFEMTYRFCSQFSKGVYAIFGFYERRTVNMLTSFCGALHVCFITPSFPVDTSNQFVLQLRPELQEALISIIDHYKWQTFVYIYDADRGLSVLQRVLDTAAEKNWQVTAVNILTTTEEGYRMLFQDLEKKKERLVVVDCESERLNAILGQIVKLEKNGIGYHYILANLGFMDIDLNKFKESGRNVTGFQLVNYTDTIPARIMQQWRTSDSRDHTRVDWKRPKYTSALTYDGVKVMAEAFQSLRRQRIDISRRGNAGDCLANPAVPWGQGIDIQRALQQVRFEGLTGNVQFNEKGRRTNYTLHVIEMKHDGIRKIGYWNEDDKFVPAATDAQAGGDNSSVQNRTYIVTTILEDPYVMLKKNANQFEGNDRYEGYCVELAAEIAKHVGYSYRLEIVSDGKYGARDPDTKAWNGMVGELVYGRADVAVAPLTITLVREEVIDFSKPFMSLGISIMIKKPQKSKPGVFSFLDPLAYEIWMCIVFAYIGVSVVLFLVSRFSPYEWHSEEFEEGRDQTTSDQSNEFGIFNSLWFSLGAFMQQGCDISPRSLSGRIVGGVWWFFTLIIISSYTANLAAFLTVERMVSPIESAEDLAKQTEIAYGTLEAGSTKEFFRRSKIAVFEKMWTYMKSAEPSVFVRTTEEGMIRVRKSKGKYAYLLESTMNEYIEQRKPCDTMKVGGNLDSKGYGIATPKGSALRNPVNLAVLKLNEQGLLDKLKNKWWYDKGECGTGGGDSKDKTSALSLSNVAGVFYILIGGLGLAMLVALIEFCYKSRSESKRMKGFCLIPQQSINEAIRTSTLPRNSGAGASGGGGSGENGRVVSQDFPKSMQSIPCMSHSSGMPLGATGL
